Assays:
[1] = biological target: T1, human dual endothelin-1/VEGF signal peptide receptor (hDEspR), on cells and tissue (human) (UniProt B0L3A2); test: isotype-antibody microbubbles on HUVECs, 800× MB:cell ratio, microscopy (negative control)
T1 sequence: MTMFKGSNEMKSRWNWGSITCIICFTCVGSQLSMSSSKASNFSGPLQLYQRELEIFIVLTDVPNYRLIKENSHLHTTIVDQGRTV

[2] = biological target: T1, human dual endothelin-1/VEGF signal peptide receptor (hDEspR), on cells and tissue (human); test: cell-based or functional assay
[3] = biological target: T2, antigenic hDEspR 9-aa peptide (NH2-terminal 9 amino acids of hDEspR) (human); test: indirect ELISA on the plate-coated antigenic 9-aa hDEspR peptide; two-fold serial dilutions of hybridoma supernatant holding mAb at 1 µg/ml (1 = 1/2 ... 12 = 1/4096); OD450
T2 construct: Free, unconjugated peptide coated on ELISA wells; The KLH conjugate was used only for immunisation; also called DEspR(1-9); free antigenic peptide
T2 peptide: MTMFKGSNE

[4] = biological target: T3, human dual endothelin-1/VEGF signal peptide receptor (hDEspR), on cells and tissue (human, UniProt B0L3A2 1-85); test: cell-based or functional assay
T3 sequence: T1 sequence

Work on “isotype-antibody control microbubbles (MBC)” yielded a % of HUVECs with bound MBs [1] of 6.8%.

Work on “endothelin-1 (from UniProt P05305 53-73) (ligand)” yielded a % CFC, BRCA1 S1497 (Kinex antibody microarray, 30 min, 10 nM ligand) [2] of 32 % CFC, a % CFC, CDK1/2 T14/Y15 (Kinex antibody microarray, 30 min, 10 nM ligand) [2] of 53 % CFC and a % CFC, CDK1/2 Y15 (Kinex antibody microarray, 30 min, 10 nM ligand) [2] of 281 % CFC. For the same molecule, the % CFC, ERK1/2 T202 + Y204; T185 + Y187 (Kinex antibody microarray, 30 min, 10 nM ligand) [2] was 135 % CFC, the % CFC, FAK Panspecific (Kinex antibody microarray, 30 min, 10 nM ligand) [2] was 205 % CFC and the % CFC, FAK S722 (Kinex antibody microarray, 30 min, 10 nM ligand) [2] was 55 % CFC. The % CFC, FAK S732 (Kinex antibody microarray, 30 min, 10 nM ligand) [2] was 62 % CFC, the % CFC, Met Panspecific (Kinex antibody microarray, 30 min, 10 nM ligand) [2] was 384 % CFC and the % CFC, PCNA Panspecific (Kinex antibody microarray, 30 min, 10 nM ligand) [2] was -47 % CFC. The % CFC, PKCa T638/T641 (Kinex antibody microarray, 30 min, 10 nM ligand) [2] was 137 % CFC, the % CFC, PKCe Panspecific (Kinex antibody microarray, 30 min, 10 nM ligand) [2] was 103 % CFC and the % CFC, Raf1 S259 (Kinex antibody microarray, 30 min, 10 nM ligand) [2] was 12 % CFC. It also gave a % CFC, SHP2 S576 (Kinex antibody microarray, 30 min, 10 nM ligand) [2] of 14 % CFC, a % CFC, STAT1 S727 (Kinex antibody microarray, 30 min, 10 nM ligand) [2] of 86 % CFC and a % CFC, STAT1 Y701 (Kinex antibody microarray, 30 min, 10 nM ligand) [2] of 95 % CFC. It also gave a % CFC, STAT3 S727 (Kinex antibody microarray, 30 min, 10 nM ligand) [2] of 133 % CFC, a % CFC, Shc1 or ShcA Y349, Y350 (Kinex antibody microarray, 30 min, 10 nM ligand) [2] of 9 % CFC and a % CFC, Smad 1/5/9 S463 + S465/S465 + S467 (Kinex antibody microarray, 30 min, 10 nM ligand) [2] of 18 % CFC. It also gave a % CFC, Src Y418 (Kinex antibody microarray, 30 min, 10 nM ligand) [2] of -11 % CFC and a % CFC, Src Y529 (Kinex antibody microarray, 30 min, 10 nM ligand) [2] of -20 % CFC.

B1: anti-hDEspR 7C5B2 monoclonal antibody (antibody, IgG2b, V domains shown)
VH: QVQLKESGPGLVAPSQSLSITCTVSGFSLTSYDISWIRQPPGKGLEWLGVIWTGGGTNYNSAFMSRLSISKDNSKSQVFLKMNSLQTDDTAIYYCVRDRDYDGWYFDVWGAGTTVTVSS
VL: DVLMTQTPLSLPVSLGDQASISCRSSQSIVHSNGNTYLEWYLQKPGQSPKLLIYKVSNRFSGVPDRFSGSGSGTDFTLKISRVEAEDLGVYYCFQGSHVPYTFGGGTKLEIK
notes: Tested as hybridoma supernatant and as purified antibody; also called 7C5B2 antibody; 7C5B2 anti-DEspR antibody
With B1 the binding result [3] was “binds”, the “EC50, inhibition of MDA-MB-231 tumor cell invasiveness (Matrigel invasion assay)” value [4] was 3.55 nM and the “EC50, inhibition of total tube length per well (HUVEC tube formation assay)” value [4] was 4.34 nM.

Source: patent US20130177500A1 (TRUSTEES OF BOSTON UNIVERSITY, published 2013)
